Laboratory results taken from paper PMC6911004, “Fragment-based screening identifies molecules targeting the substrate-binding ankyrin repeat domains of tankyrase” (Scientific Reports, 2019).

Target: T1, TNKS2 ARC1 (Homo sapiens, UniProt Q9H2K2)
T1 construct: TNKS2 ARC1 (20–178); His6-GST; made in house; host or cells: E. coli
T1 sequence (Q9H2K2 whole entry, looked up): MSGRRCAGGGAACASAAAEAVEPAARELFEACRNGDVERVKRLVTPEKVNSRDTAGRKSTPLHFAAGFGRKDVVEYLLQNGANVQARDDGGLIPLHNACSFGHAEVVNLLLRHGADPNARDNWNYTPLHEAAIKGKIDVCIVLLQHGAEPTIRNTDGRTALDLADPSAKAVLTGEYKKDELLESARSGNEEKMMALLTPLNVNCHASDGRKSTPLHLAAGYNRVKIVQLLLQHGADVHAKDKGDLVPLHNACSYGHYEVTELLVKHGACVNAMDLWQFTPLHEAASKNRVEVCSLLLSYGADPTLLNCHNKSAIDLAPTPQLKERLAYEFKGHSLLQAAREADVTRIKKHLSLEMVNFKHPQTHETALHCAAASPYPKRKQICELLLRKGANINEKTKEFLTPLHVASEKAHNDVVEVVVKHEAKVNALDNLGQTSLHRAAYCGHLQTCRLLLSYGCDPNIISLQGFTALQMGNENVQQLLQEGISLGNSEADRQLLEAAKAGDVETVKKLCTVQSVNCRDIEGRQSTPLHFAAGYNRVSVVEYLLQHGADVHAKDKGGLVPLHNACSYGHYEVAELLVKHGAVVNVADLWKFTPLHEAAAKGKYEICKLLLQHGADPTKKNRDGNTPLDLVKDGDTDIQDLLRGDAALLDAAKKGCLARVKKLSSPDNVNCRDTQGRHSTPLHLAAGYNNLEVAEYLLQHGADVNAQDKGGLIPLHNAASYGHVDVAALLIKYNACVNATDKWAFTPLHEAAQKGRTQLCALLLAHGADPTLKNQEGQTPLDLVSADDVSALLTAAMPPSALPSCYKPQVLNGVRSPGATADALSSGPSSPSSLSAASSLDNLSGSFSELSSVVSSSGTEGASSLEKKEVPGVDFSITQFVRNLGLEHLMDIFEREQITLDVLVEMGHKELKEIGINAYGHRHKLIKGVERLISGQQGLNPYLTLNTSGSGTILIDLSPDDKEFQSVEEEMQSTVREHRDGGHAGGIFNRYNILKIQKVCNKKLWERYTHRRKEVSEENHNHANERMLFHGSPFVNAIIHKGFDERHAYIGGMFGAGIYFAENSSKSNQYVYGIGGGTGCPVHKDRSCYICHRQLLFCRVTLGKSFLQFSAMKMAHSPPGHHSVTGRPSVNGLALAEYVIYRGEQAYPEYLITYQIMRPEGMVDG
Assay: Differential scanning fluorimetry (DSF)
Assay type: binding
Settings: ARC 20 μM + 3BP2 TBM peptide 200 μM, inflection point method
Protocol: For the experiment shown in Fig. 2A, ARC and 3BP2 TBM peptide concentrations were 20 and 200 μM, respectively, in 50 mM HEPES-NaOH pH 7.5, 100 mM NaCl, 2 mM TCEP and a total volume of 25 μL. SYPRO Orange was added at 5×. Data were recorded from 4–95 °C, with the temperature ramped by 0.5 °C every 15 s, using a CFX384 thermal cycler (Bio-Rad). Data were analysed by non-linear regression in GraphPad Prism using a Boltzmann sigmoid with linear baselines. ΔTm values were determined using the inflection point method.

ΔTm: 1.34 °C
Sequence: LPHLQRSPPDGQSFRSW [3BP2 16-mer peptide, 16-mer TBM peptide derived from 3BP2, W added for A280, N-terminus acetylated, C-terminus amide-capped; positive control, reference compound]
